Test results: paper PMC7049728, “The full-length structure of Thermus scotoductus OLD defines the ATP hydrolysis properties and catalytic mechanism of Class 1 OLD family nucleases” (Nucleic Acids Research, 2020)

Assays:
[1] = biological target: the molecule itself; assay: SEC-MALS; 4 mg/ml loaded on Superdex 200 10/300 Increase; 20 mM HEPES pH 7.5, 150 mM KCl, 5 mM MgCl2, 1 mM DTT; 0.7 ml/min; Ts^FL also in different nucleotide states
[2] = substrate: Nc1ncnc2c1ncn2[C@@H]1O[C@H](COP(=O)(O)OP(=O)(O)OP(=O)(O)O)[C@@H](O)[C@H]1O; assay: Malachite green phosphate release ATPase assay; format: biochemical, Thermus scotoductus; details: 65°C, 20 mM Tris-HCl pH 8, 50 mM NaCl, 5 mM MgCl2, no DNA (basal)

B1: Thermus scotoductus OLD N-terminal region (residues 1-369) (domain or fragment, UniProt E8PLM2 1-369, looked up)
chain: MLKRLQVKNFRCLEDIDLPLGPLTAIVGPNGAGKTTILRAIDLVLGDVWPSLRSFRIPQDFINFDTTRAIEITVHFDPPYTQGSFNITAFRLTCKGEDADFHVDLEPLDEGGNVPRYPSGNPLRVGTDMRNHARVLFLDHRRNLAQHLPSIRGSILGRLLQPVRREFKLQDNFKQVYEQAMDLLRTEQVKQIEKTIAETAKQMLGFLGKDAMKSMEIGFGFADPANPFNSLRLQYRESDLTLPGDELGLGIQSAIVVGIFEAFRQLGEKIGTVIIEEPEMYLHPQAQRYFYRLLCEMADKDQCQIIYSTHSPIFADVNRFEALRLVRKDRDDRVVVSYVREEDKSALDNVRNRFKLGGRFDTARNEVLF
notes: Thermus scotoductus OLD, UniProt E8PLM2, N-terminal region encompassing the ATPase domain, residues 1-369; in pET21b; also called Ts^NTR; NTR; source: E. coli BL21(DE3), purified (65°C heat step, nickel column, HiTrap Q, SEC)
**Q.** For B1, which “stoichiometry N” value [1] is on record?
**A.** The value was 2.

B2: full-length Thermus scotoductus OLD (enzyme, UniProt E8PLM2 1-528, looked up)
chain: MLKRLQVKNFRCLEDIDLPLGPLTAIVGPNGAGKTTILRAIDLVLGDVWPSLRSFRIPQDFINFDTTRAIEITVHFDPPYTQGSFNITAFRLTCKGEDADFHVDLEPLDEGGNVPRYPSGNPLRVGTDMRNHARVLFLDHRRNLAQHLPSIRGSILGRLLQPVRREFKLQDNFKQVYEQAMDLLRTEQVKQIEKTIAETAKQMLGFLGKDAMKSMEIGFGFADPANPFNSLRLQYRESDLTLPGDELGLGIQSAIVVGIFEAFRQLGEKIGTVIIEEPEMYLHPQAQRYFYRLLCEMADKDQCQIIYSTHSPIFADVNRFEALRLVRKDRDDRVVVSYVREEDKSALDNVRNRFKLGGRFDTARNEVLFAKRALLVEGYGDRVAALQLFNQLEVDPDAECIAVVDCGGKAGIELIVGVCKALDIPFVVVHDEDVWPIDERADEETRRKQEQENKAEQEKNQRIQACAGAERVFVVQPSLEAALGIGRNASDKPYRIAEILKTVDVGQPPDALRPFVEAIRQVTRPMEE
notes: Thermus scotoductus OLD (Class 1 OLD family nuclease), UniProt E8PLM2, full-length, residues 1-525; codon-optimised synthetic gene in pET21b; Dimer by SEC-MALS and by crystal symmetry; The crystal model holds residues 1-142, 149-237 and 245-525; also called Ts^FL; Ts OLD; source: E. coli BL21(DE3), purified (65°C heat step, nickel column, HiTrap Q, SEC)
**Q.** Which “stoichiometry N” value [1] does the source give for B2 here?
**A.** The value was 2.

B3: Ts OLD (Ts^FL) (Thermus scotoductus SA-01) (protein)
chain: MLKRLQVKNFRCLEDIDLPLGPLTAIVGPNGAGKTTILRAIDLVLGDVWPSLRSFRIPQDFINFDTTRAIEITVHFDPPYTQGSFNITAFRLTCKGEDADFHVDLEPLDEGGNVPRYPSGNPLRVGTDMRNHARVLFLDHRRNLAQHLPSIRGSILGRLLQPVRREFKLQDNFKQVYEQAMDLLRTEQVKQIEKTIAETAKQMLGFLGKDAMKSMEIGFGFADPANPFNSLRLQYRESDLTLPGDELGLGIQSAIVVGIFEAFRQLGEKIGTVIIEEPEMYLHPQAQRYFYRLLCEMADKDQCQIIYSTHSPIFADVNRFEALRLVRKDRDDRVVVSYVREEDKSALDNVRNRFKLGGRFDTARNEVLFAKRALLVEGYGDRVAALQLFNQLEVDPDAECIAVVDCGGKAGIELIVGVCKALDIPFVVVHDEDVWPIDERADEETRRKQEQENKAEQEKNQRIQACAGAERVFVVQPSLEAALGIGRNASDKPYRIAEILKTVDVGQPPDALRPFVEAIRQVTRP
notes: full-length, residues 1-525, C-terminal 6xHis tag (pET21b), codon-optimized, expressed in E. coli BL21(DE3); homodimer
**Q.** What does the source list for B3?
**A.** Km [2]: 180 ± 26 µM; kcat [2]: 0.00733 ± 0.005 s⁻¹
